Test results from US11203743B2, “Method for producing long-chain glycosylated genistein” (Jiangnan University, priority 2019, dated 2021).

Assay: Specificity of different cyclodextrin glucosyltransferases to glycosylated genistein products (maltodextrin donor, genistein receptor, HPLC)
Type: biochemical
Settings: 40° C., pH 6.5, 120 rpm, 20-24 hours
Protocol: Genistein (purchased from Sigma) was dissolved in dimethyl sulfoxide (DMSO) to prepare a genistein solution with a final concentration of 7.5 g/L; maltodextrin (purchased from Shanghai Sangon Biotech Co., Ltd.) was dissolved in a PBS buffer (50 mM, pH 6.5) to prepare a maltodextrin solution with a final concentration of 40 g/L; the freeze-fried pure enzymes of the mutants A156V/L174P, A156V/L174P/166Y, A156V/L174P/A166V, A156V/L174P/A166G, A156V/L174P/A166K, A156S, A156L and L174M obtained in Example 1 were dissolved in a PBS buffer (50 mM, pH 6.5) separately to prepare a CGTase enzyme solution with a final concentration of 15 U/L; 300 μL of the genistein solution, 500 μL of the maltodextrin solution and 200 μL of the CGTase enzyme solution were taken separately, mixed in a 2 mL vial with a lid and placed in a shaker for slow shaking at 40° C. and 120 rpm for 20-24 hours to obtain a reaction solution.
The molar content of short-chain glycosylated genistein (here the short-chain glycosylated genistein was a mixture of monoglycosylated genistein, diglycosylated genistein and triglycosylated genistein) and long-chain glycosylated genistein (here the long-chain glycosylated genistein was a mixture of tetraglycosylated genistein, pentaglycosylated genistein and hexaglycosylated genistein) in the reaction solution was detected by HPLC, the ratio (%) of the molar content of short-chain glycosylated genistein and long-chain glycosylated genistein in the reaction solution to the molar content of total glycosylated genistein in the reaction solution and the content (g/L) of short-chain glycosylated genistein and long-chain glycosylated genistein in the reaction solution were calculated, and detection results were shown in Tables 1 to 2. A method for detecting the ratio (%) of the content of short-chain glycosylated genistein and long-chain glycosylated genistein in the reaction solution to the content of total glycosylated genistein in the reaction solution by HPLC included that the reaction solution was filtered through a 0.22 μm filter membrane, and an Amethyst C18-H column (4.6*250 mm, Sepax, America) was used for detection (see Table 3 for specific detection conditions). The content of long-chain glycosylated genistein=the molar content of hexaglycosylated genistein*the molecular weight of hexaglycosylated genistein+ the molar content of pentaglycosylated genistein*the molecular weight of pentaglycosylated genistein+ the molar content of tetraglycosylated genistein*the molecular weight of tetraglycosylated genistein, and the content of short-chain glycosylated genistein=the molar content of triglycosylated genistein*the molecular weight of triglycosylated genistein+ the molar content of diglycosylated genistein*the molecular weight of diglycosylated genistein+ the molar content of monoglycosylated genistein*the molecular weight of monoglycosylated genistein.

B1: Wild type: cyclodextrin glucosyltransferase with the amino acid sequence shown as SEQ ID NO: 1 (protein)
chain: SPDTSVDNKVNFSTDVIYQIVTDRFADGDRTNNPAGDAFSGDRSNLKLYFGGDWQGIIDKINDGYLTGMGVTALWISQPVENITSVIKYSGVNNTSYHGYWARDFKQTNDAFGDFADFQNLIDTAHAHNIKVVIDFAPNHTSPADRDNPGFAENGALYDNGSLLGAYSNDTAGLFHHNGGTDFSTIEDGIYKNLYDLADINHNNNAMDAYFKSAIDLWLGMGVDGIRFDAVKHMPFGWQKSFVSSIYGGDHPVFTFGEWYLGADQTDGDNIKFANESGMNLLDFEYAQEVREVFRDKTETMKDLYEVLASTESQYDYINNMVTFIDNHDMDRFQVAGSGTRATEQALALTLTSRGVPAIYYGTEQYMTGDGDPNNRAMMTSFNTGTTAYKVIQALAPLRKSNPAIAYGTTTERWVNNDVLIIERKFGSSAALVAINRNSSAAYPISGLLSSLPAGTYSDVLNGLLNGNSITVGSGGAVTNFTLAAGGTAVWQYTAPETSPAIGNVGPTMGQPGNIVTIDGRGFGGTAGTVYFGTTAVTGSGIVSWEDTQIKAVIPKVAAGKTGVSVKTSSGTASNTFKSFNVLTGDQVTVRFLVNQANTNYGTNVYLVGNAAELGSWDPNKAIGPMYNQVIAKYPSWYYDVSVPAGTKLDFKFIKKGGGTVTWEGGGNHTYTTPASGVGTVTVDWQN
modifications: Translated from synthetic DNA
- content of long-chain glycosylated genistein in the reaction solution: 3.2 g/L
- content of short-chain glycosylated genistein in the reaction solution: 11.4 g/L
- ratio of the molar content of long-chain glycosylated genistein to the molar content of total glycosylated genistein in the reaction solution: 15%
- ratio of the molar content of short-chain glycosylated genistein to the molar content of total glycosylated genistein in the reaction solution: 85%
